5 molecules from patent publication US6261814A, “Carboxylic acid reductase, and methods of using same” (University of Iowa Research Foundation, priority 1998, dated 2001) can be followed below.

Series [1] concerns the target T1, carboxylic acid reductase (Nocardia iowensis, UniProt Q6RKB1).
T1 construct: isolated and substantially purified from Nocardia sp. strain NRRL 5646; endogenous in cells; host or cells: Nocardia sp; NRRL 5646, benzoate-induced culture; enzyme purified by Mono-Q, Reactive Green 19 agarose and hydroxyapatite chromatography
In words: 13C NMR study of benzoyl-AMP reduction by purified carboxylic acid reductase. Type of series: biochemical, Nocardia sp. NRRL 5646. The conditions noted are these: 1.4 mM benzoyl-AMP, 2.0 mM NADPH, 20 min. at 20° C. The procedure:
Using carboxyl-^13 C labeled benzoyl-AMP, synthesized as described in Example 1, the reduction of benzoyl-AMP to benzaldehyde with the substantially purified carboxylic acid reductase from Nocardia sp. NRRL 5646 was investigated with ^13 C NMR spectroscopy (see, FIG. 1). The substantially purified carboxylic acid reductase from Nocardia sp. NRRL 5646 and all other reagents were prepared or obtained in Example 1.
A 10 μl sample (0.05 units) of the substantially purified carboxylic acid reductase was added to initiate the reaction. A control sample was prepared containing everything except the enzyme. After 20 min. incubation at 20° C., the samples were subjected to NMR analysis. For ^13 C NMR spectroscopy, […] D2 O was added as the locking solvent, and […] of dioxane was added as an internal standard (67.4 ppm). NMR spectra were obtained with a Bruker WM 360-MHZ high-field spectrometer equipped with an IBM Aspect-2000 processor.

In series [2] the target is T1, carboxylic acid reductase. Nature of the series: Enzymatic reduction of vanillic acid to vanillin by purified carboxylic acid reductase. It is filed as biochemical, Nocardia sp. NRRL 5646. The procedure: The reaction mixture was incubated at 30° C. with gentle shaking for 24 hours, after which the entire reaction mixture was loaded onto a solid phase extraction cartridge (Chem Elut 1200, 200 ml aqueous solution capacity). After 5 min. of equilibration, the cartridge was washed with 2×100 ml of hexane, then washed again with 2×100 ml of dichloromethane (concentrated to less than 2 ml).
The extract was then transferred to a vial and the solvent was removed with a stream of nitrogen to give about 8 mg of the purified vanillin end product.
Mass spectrometry, ^1 H, and ^13 C NMR data confirmed that this compound was vanillin. The yield was determined to be 96% with UV spectrophotometric assay at 340 nm.

In series [3] the target is T1, carboxylic acid reductase. Nature of the series: Rate of carboxylic acid reduction after o-benzylation of vanillic acid (unpublished data). It is filed as biochemical, Nocardia sp. NRRL 5646. The conditions noted are these: substrate concentration 5 mM.
Series [4] relates to CC(C)Cc1ccc([C@@H](C)C(=O)O)cc1. In words: purified protein, by the assay type. The conditions noted are these: other: purified enzyme; mean of three determinations; pH 7.5; 25.0 °C.
Series [5] deals with CC(C)Cc1ccc([C@H](C)C(=O)O)cc1. In words: purified protein, by the assay type. The conditions noted are these: other: purified enzyme; mean of three determinations; pH 7.5; 25.0 °C.
Series [6] deals with NC(=O)C1=CN([C@@H]2O[C@H](COP(=O)(O)OP(=O)(O)OC[C@H]3O[C@@H](n4cnc5c(N)ncnc54)[C@H](OP(=O)(O)O)[C@@H]3O)[C@@H](O)[C@H]2O)C=CC1. Nature of the series: purified protein, by the assay type. The conditions noted are these: other: purified enzyme; mean of three determinations; pH 7.5; 25.0 °C.
Series [7] relates to Nc1ncnc2c1ncn2[C@@H]1O[C@H](COP(=O)(O)OP(=O)(O)OP(=O)(O)O)[C@@H](O)[C@H]1O. Nature of the series: purified protein, by the assay type. The conditions noted are these: other: purified enzyme; mean of three determinations; pH 7.5; 25.0 °C.
Series [8] can be described thus: Stability of the purified enzyme in buffer. The conditions noted are these: 50 mM pH 7.5 Tris-HCl buffer, 10% glycerol, 8 hr at 4° C. It is filed as physicochemical. As to the method:
Properties of the carboxylic acid reductase (aryl-aldehyde oxidoreductase).Inclusion of 10% glycerol in all chromatographic buffers was used to stabilize the enzyme. Nevertheless, the purified enzyme in 50 mM pH 7.5 Tris-HCl buffer, containing 10% glycerol, lost nearly […] of its activity in 8 hr at 4° C.

Series [9] addresses carboxylic acid reductase (aryl aldehyde oxidoreductase) (Nocardia iowensis, UniProt Q6RKB1). In words: Standard aryl-aldehyde oxidoreductase assay: specific activity of the purified enzyme. Type of series: biochemical, Nocardia sp. NRRL 5646. The conditions noted are these: after hydroxyapatite step. Further details: isolated and substantially purified from Nocardia sp. strain NRRL 5646; endogenous in cells; host or cells: Nocardia sp; NRRL 5646, benzoate-induced culture; enzyme purified by Mono-Q, Reactive Green 19 agarose and hydroxyapatite chromatography. The procedure: Enzyme assay. The standard aryl-aldehyde oxidoreductase assay solution contained 0.15 mM […], 1 mM ATP, and 5 mM sodium benzoate, 10 mM MgCl2 and 0.01 to 0.3 units of enzyme in 50 mM Tris-HCl buffer in a final volume of 0.7 ml. The reference cuvette contained all components except for benzoate. Enzyme reactions were initiated by adding enzyme, and they were monitored by recording the absorption decrease at 340 nm at 25° C. with a Shimadzu 160 spectrophotometer. One unit of the carboxylic acid reductase (aryl-aldehyde oxidoreductase) is defined as the amount of enzyme that catalyzes the reduction of 1 μmol benzoate to benzaldehyde per min. under standard assay conditions.
Protein assay. The concentration of protein was measured by the Bradford protein microassay (Bradford, Anal. Biochem. 72:248-254 (1976)), with bovine serum albumin as the standard.

Values joined by “and” are separate entries in the source; they are usually repeats but may differ in a detail not shown here. Identical values can stand only once. “Also recorded” adds a separate entry of the source.

T1 sequence (Q6RKB1 whole entry): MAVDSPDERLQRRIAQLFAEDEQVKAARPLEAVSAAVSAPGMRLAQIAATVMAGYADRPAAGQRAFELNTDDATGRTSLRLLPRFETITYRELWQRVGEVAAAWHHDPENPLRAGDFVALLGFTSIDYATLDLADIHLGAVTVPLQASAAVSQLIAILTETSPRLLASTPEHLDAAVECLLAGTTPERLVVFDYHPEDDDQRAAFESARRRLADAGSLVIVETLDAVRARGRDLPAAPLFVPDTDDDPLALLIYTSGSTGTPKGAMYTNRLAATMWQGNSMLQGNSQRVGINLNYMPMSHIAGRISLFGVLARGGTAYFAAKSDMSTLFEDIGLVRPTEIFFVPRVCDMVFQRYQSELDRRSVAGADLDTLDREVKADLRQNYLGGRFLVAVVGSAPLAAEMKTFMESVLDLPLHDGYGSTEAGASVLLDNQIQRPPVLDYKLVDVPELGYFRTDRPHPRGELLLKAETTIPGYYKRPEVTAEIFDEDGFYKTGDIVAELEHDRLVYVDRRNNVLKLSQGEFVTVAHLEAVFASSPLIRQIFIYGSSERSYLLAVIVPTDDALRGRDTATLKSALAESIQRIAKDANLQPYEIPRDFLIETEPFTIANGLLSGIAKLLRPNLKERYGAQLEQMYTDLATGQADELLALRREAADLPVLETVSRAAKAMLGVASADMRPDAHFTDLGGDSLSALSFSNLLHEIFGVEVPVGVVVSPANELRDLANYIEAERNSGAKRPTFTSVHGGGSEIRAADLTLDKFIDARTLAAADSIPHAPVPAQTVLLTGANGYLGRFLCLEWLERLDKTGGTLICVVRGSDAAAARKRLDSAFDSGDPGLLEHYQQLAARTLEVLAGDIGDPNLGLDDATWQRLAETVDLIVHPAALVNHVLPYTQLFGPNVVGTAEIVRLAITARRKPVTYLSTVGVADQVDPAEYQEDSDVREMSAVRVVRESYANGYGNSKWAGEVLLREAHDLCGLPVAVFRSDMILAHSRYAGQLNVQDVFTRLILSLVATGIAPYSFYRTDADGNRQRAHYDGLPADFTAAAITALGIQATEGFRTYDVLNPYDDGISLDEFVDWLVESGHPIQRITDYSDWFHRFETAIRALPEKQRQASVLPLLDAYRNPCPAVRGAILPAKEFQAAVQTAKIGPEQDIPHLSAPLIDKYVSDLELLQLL
Sequence of carboxylic acid reductase (aryl aldehyde oxidoreductase) (Q6RKB1 whole entry): as above

On to `Nc1ncnc2c1ncn2[C@@H]1O[C@H](COP(=O)(O)OC(=O)c2ccccc2)[C@@H](O)[C@H]1O` [benzoyl AMP], for which the “reduction of benzoyl-AMP to benzaldehyde” value in [1] is recorded as “completely reduced; also recorded: quantitatively reduced”.

With `COc1cc(C(=O)O)ccc1O` [vanillic acid, 4-hydroxy-3-methoxybenzoic acid], the “transformation from vanillic acid to vanillin” value in [2] (with ATP and NADPH, purified enzyme) is “quantitative”. For the same molecule, the “increase in the rate of carboxylic acid reduction as a result of o-benzylation” value in [3] is “more than 15 fold”.

`COc1cc(C=O)ccc1O` [vanillin, 4-hydroxy-3-methoxy-benzaldehyde] registered a yield of vanillin in [2] (UV spectrophotometric assay at 340 nm, 30° C., 24 hours) of 96%.

With “carboxylic acid reductase (aryl-aldehyde oxidoreductase) (Nocardia iowensis)”, the Michaelis-Menten constant (Km) (usually the concentration of substrate that gives half-maximal velocity) is 34.5 µM in series [4]; 155 µM in [5]; 29.3 µM and 57.3 ± 12.5 µM in series [6]; 57.3 µM and 29.3 ± 3.1 µM in [7].

B1: Purified carboxylic acid reductase: carboxylic acid reductase (aryl-aldehyde oxidoreductase) isolated and purified from Nocardia sp. strain NRRL 5646 (protein, UniProt Q6RKB1 2-1174, looked up)
Carboxylic acid reductase: AVDSPDERLQRRIAQLFAEDEQVKAARPLEAVSAAVSAPGMRLAQIAATVMAGYADRPAAGQRAFELNTDDATGRTSLRLLPRFETITYRELWQRVGEVAAAWHHDPENPLRAGDFVALLGFTSIDYATLDLADIHLGAVTVPLQASAAVSQLIAILTETSPRLLASTPEHLDAAVECLLAGTTPERLVVFDYHPEDDDQRAAFESARRRLADAGSLVIVETLDAVRARGRDLPAAPLFVPDTDDDPLALLIYTSGSTGTPKGAMYTNRLAATMWQGNSMLQGNSQRVGINLNYMPMSHIAGRISLFGVLARGGTAYFAAKSDMSTLFEDIGLVRPTEIFFVPRVCDMVFQRYQSELDRRSVAGADLDTLDREVKADLRQNYLGGRFLVAVVGSAPLAAEMKTFMESVLDLPLHDGYGSTEAGASVLLDNQIQRPPVLDYKLVDVPELGYFRTDRPHPRGELLLKAETTIPGYYKRPEVTAEIFDEDGFYKTGDIVAELEHDRLVYVDRRNNVLKLSQGEFVTVAHLEAVFASSPLIRQIFIYGSSERSYLLAVIVPTDDALRGRDTATLKSALAESIQRIAKDANLQPYEIPRDFLIETEPFTIANGLLSGIAKLLRPNLKERYGAQLEQMYTDLATGQADELLALRREAADLPVLETVSRAAKAMLGVASADMRPDAHFTDLGGDSLSALSFSNLLHEIFGVEVPVGVVVSPANELRDLANYIEAERNSGAKRPTFTSVHGGGSEIRAADLTLDKFIDARTLAAADSIPHAPVPAQTVLLTGANGYLGRFLCLEWLERLDKTGGTLICVVRGSDAAAARKRLDSAFDSGDPGLLEHYQQLAARTLEVLAGDIGDPNLGLDDATWQRLAETVDLIVHPAALVNHVLPYTQLFGPNVVGTAEIVRLAITARRKPVTYLSTVGVADQVDPAEYQEDSDVREMSAVRVVRESYANGYGNSKWAGEVLLREAHDLCGLPVAVFRSDMILAHSRYAGQLNVQDVFTRLILSLVATGIAPYSFYRTDADGNRQRAHYDGLPADFTAAAITALGIQATEGFRTYDVLNPYDDGISLDEFVDWLVESGHPIQRITDYSDWFHRFETAIRALPEKQRQASVLPLLDAYRNPCPAVRGAILPAKEFQAAVQTAKIGPEQDIPHLSAPLIDKYVSDLELLQLL
Take B1: the loss of activity in [8] is about 250%. Also, in series [9], the specific activity is on record as 5.9 units/mg of protein.
